Results: the DeepSol protein solubility set

Test: soluble on expression in E. coli; label from the status in PepcDB or PDB records

Sequence	soluble on expression in E. coli
MGSDKIHHHHHHMKSPTPALMLQGTSSNAGKSILTAAFCRILLQDGYRVAPFKAQNMALNSHVTADGLELGRAQAVQAAACRLDVDVRMNPVLLKPNSDTGSQVVVMGRPVGNMRVREYMAYKPVAFDAARAAYDSLAADVDVMVLEGAGSPAEVNLKAHDIVNMAMARHAEAKVLLVGDIDRGGVFASLVGTMELLDPWERDLVAGFVLNKFRGDATLLSPAYDVVTGRTGKPFLGVVPWLHDLGLPDEDSVSFRETLAGRAPDVPAGGGMLDIVLVDLPHISNFTDLDALRREPDVAVRVVRSPEQLGSPDAIILPGSKNTLGDLAALRSRGMAEALCALRSAEGGHLGPVIVGICGGFQMMGRFLADPQGVESDHACTEAGLGLLPVTTEMGSAKVLRRTSAKTVSGWCGAGVAAGLMPGTGGGHGGAEVCPGEGYAVHGYEIHHGVTTPDAGGGAVLVCLHESDGSPAGWTTPDGQVWGTYLHGVFDADGFRRGWLDALRVRRGLEPVGRVVARYDLDPALDRLADVVREAVDMGHIYSVLGLSPKGRRQT	not soluble
FHLTTRNGEPHMIVSRQEKGKSLLFKTEDGVNMCTLMAMDLGELCEDTITYKCPLLRQNEPEDIDCWCNSTSTWVTYGTCT	soluble
MGSDKIHHHHHHMKTNNSPISLLQTQNNTYNVLNNIKVHVEVRDNPYNLELDNLFQMAARINKKRSFLFVSTILGKHLPIKPAVSLASGFALAARYMEILHNTFHPFQKEILNLISLEVDEIPEEIFHYQYPLPEEVLFIGFAETATALGHSMFQCFQNAKYVHTTRESIPNLESVITFEEEHSHATSHRCYVDKSFFQNNNPIILVDDEMTTGKTALNIIRSIQQQFPREEYTIASLLDWRSNTNRRQFKQLEEELQIKIHVISLLEGRIHTTGQPLNITKTDTHIEETKPYFKKHTIICPALSYTSNYIKYTGRFGISSYEQKHIHSFAQEAGKMLQRKRIGKRTLCLGTGEFMYIPMKIAAEMGENILYQSTTRSPIHPVSNDVNYAIHNHFSYPNPEDSTITNYFYNISPHEYDEVFVFMERDVGEEALSPLLQHLQTVIPCIHIVSFSNSIEKEG	not soluble
MAHHHHHHMNCKNMDTSYEIINYLTKDELDIDLSCMDKKERYKIWKRLPKCELHCHLDVCFSVDFFLNVIRKYNIQPNMSDEEIIDYYLFSKPGKSLDEFVEKALRLTDIYIDYTVVEDLAKHAVFNKYKEGVVLMEFRYSPSFMSFKHNLDKDLIHEAIVKGLNEAVALLEYKIQVGLLCTGDGGLSHERMKEAAEFCIKHKKDFVGYDHAGHEVDLKPFKDIFDNIREEGISLSVHAGEDVSIPNLNSLYTAINLLHVKRIGHGIRVSESQELIDLVKEKDILLEVCPISNVLLNNVKSMDTHPIRMLYDAGVKVSVNSDDPGMFLTNITDNYEELYTHLNFTLADFMKMNLWAVQKSFVDPDIKNKIISKYF	soluble
MSLKYVNKVIVILGASFAGMTCAQKLRQLNPNWDIVLIDKEIHPDYVPNGLNWYYRHEISGLNQAMWQTEEEQRLQNIRCLFGLKVEKINKEDRELMLSDGSSVYYDQLICAMGSQAESTYIDGADAQGVLTTKTYATSQNAKQVLDKSHKVAVVGAGIIGLDIAYSLHESGKAVTLLEAQERPDFRHTDPDMSLPLLDAMAESKLHFFQNQKVEKITVTREEKLCLRTLTGDTFTVDAVILAVNFRPDSRLLTGLVDLSVDNSVVVNDYFQTSDPNIYAIGDLIWSYFKGLNSAYYMPLINQAIRSAQMLAYHLSGHAVPKLKITRATGSKHFGYYRANIGLTELEAGFYEDTVSVTYFPKEQYDLRIKLIANQKTGHLLGAQLISKENCLATANQLVQAISCDMTDFDLAFQDFIYTARESEMAYMLHQAAINLYEKRIGEGHHHHHH	soluble
MLSNQLHFAKPTARTPLVVLVHGLLGSGADWQPVLSHLARTQCAALTLDLPGHGTNPERHCDNFAEAVEMIEQTVQAHVTSEVPVILVGYSLGGRLIMHGLAQGAFSRLNLRGAIIEGGHFGLQENEEKAARWQHDQQWAQRFSQQPIEHVLSDWYQQAVFSSLNHEQRQTLIAQRSANLGSSVAHMLLATSLAKQPYLLPALQALKLPIHYVCGEQDSKFQQLAESSGLSYSQVAQAGHNVHHEQPQAFAKIVQAMIHSIID	soluble
